# Laboratory results: IntAct's records for PubMed 11743162
# B1: Protein BZZ1 (Saccharomyces cerevisiae), P38822 (parent)
# chain: MSADLSIGNEIKDSFKETHKWVQNNLKWLKDIEQFYRERAKLEKDYSERLSRLSAEYFNKKSSTSVPISVGDTPTTTPGSIEAAGVVAWNEILSQTDMISKDHDQLSTDFENHVANQLSGLFTKLDMTLSKINGFNNDMVNKKDNIYHELEKAKKDYDEACSTMEMARNRYTKASNDRNKKKLDEKEMEMNKCKNEYLIKINQANRTKDKYYFQDVPEVLDLLQDVNEAKTLFLNDLWLKAASVENDLGANVSKRLQAANSVVKQNKPSLNTAIFIKHNLKNWKEPQDFVYKPSPVWHDDEKFAVPSSLEVEDLRIKLAKAENDYNSLQDKTQNELSKLSTLNKIKHEMKTNEDNINATKFYDTLKEYLNVVSPFTSHETLKLQAEVQIESIQNNVPEEYDLSTDNIDLSKTKKKSGIFSKFKHNILNVDSKPSSGGSTGNGNGGPLHITSLFNTSRRTRLGSAPNNAGEDSDNNSIRTTSTNNTKKTTQNSSDDGKNKVLYAYVQKDDDEITITPGDKISLVARDTGSGWTKINNDTTGETGLVPTTYIRISSAATVKANDRGPAPEVPPPRRSTLPVRTMEAIYAYEAQGDDEISIDPGDIITVIRGDDGSGWTYGECDGLKGLFPTSYCK
# partner: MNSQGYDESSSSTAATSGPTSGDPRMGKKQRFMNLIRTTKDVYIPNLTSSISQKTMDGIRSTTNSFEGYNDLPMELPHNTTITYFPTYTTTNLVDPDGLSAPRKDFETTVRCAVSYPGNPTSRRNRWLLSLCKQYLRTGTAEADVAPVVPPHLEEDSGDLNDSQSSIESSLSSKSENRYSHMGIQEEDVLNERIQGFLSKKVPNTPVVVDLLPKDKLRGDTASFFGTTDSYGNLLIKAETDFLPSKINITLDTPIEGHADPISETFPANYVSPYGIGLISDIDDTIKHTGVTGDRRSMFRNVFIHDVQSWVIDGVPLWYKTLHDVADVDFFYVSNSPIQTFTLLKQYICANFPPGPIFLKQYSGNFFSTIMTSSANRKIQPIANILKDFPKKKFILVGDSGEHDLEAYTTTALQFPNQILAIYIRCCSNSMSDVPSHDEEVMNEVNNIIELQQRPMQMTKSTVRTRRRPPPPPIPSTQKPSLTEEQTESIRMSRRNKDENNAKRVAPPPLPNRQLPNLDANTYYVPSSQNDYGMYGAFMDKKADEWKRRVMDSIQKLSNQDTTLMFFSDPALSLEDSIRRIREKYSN
# B2: Protein BZZ1 (Saccharomyces cerevisiae), P38822 (parent)
# chain: B1 chain
# B3: High osmolarity signaling protein SHO1 (Saccharomyces cerevisiae), P40073 (parent)
# chain: MSISSKIRPTPRKPSRMATDHSFKMKKFYADPFAISSISLAIVSWVIAIGGSISSASTNESFPRFTWWGIVYQFLIICSLMLFYCFDLVDHYRIFITTSIAVAFVYNTNSATNLVYADGPKKAAASAGVILLSIINLIWILYYGGDNASPTNRWIDSFSIKGIRPSPLENSLHRARRRGNRNTTPYQNNVYNDAIRDSGYATQFDGYPQQQPSHTNYVSSTALAGFENTQPNTSEAVNLHLNTLQQRINSASNAKETNDNSNNQTNTNIGNTFDTDFSNGNTETTMGDTLGLYSDIGDDNFIYKAKALYPYDADDDDAYEISFEQNEILQVSDIEGRWWKARRANGETGIIPSNYVQLIDGPEEMHR
# Variants of: B1
# Conditions: with app1_yeast APP1, P53933
row,Variant,effect of a mutation on the interaction
1,W531S;W615S,decreasing interaction

# Variants of: B2
# Conditions: with las17_yeast LAS17, Q12446
# Target sequence in this assay (Q12446 whole entry): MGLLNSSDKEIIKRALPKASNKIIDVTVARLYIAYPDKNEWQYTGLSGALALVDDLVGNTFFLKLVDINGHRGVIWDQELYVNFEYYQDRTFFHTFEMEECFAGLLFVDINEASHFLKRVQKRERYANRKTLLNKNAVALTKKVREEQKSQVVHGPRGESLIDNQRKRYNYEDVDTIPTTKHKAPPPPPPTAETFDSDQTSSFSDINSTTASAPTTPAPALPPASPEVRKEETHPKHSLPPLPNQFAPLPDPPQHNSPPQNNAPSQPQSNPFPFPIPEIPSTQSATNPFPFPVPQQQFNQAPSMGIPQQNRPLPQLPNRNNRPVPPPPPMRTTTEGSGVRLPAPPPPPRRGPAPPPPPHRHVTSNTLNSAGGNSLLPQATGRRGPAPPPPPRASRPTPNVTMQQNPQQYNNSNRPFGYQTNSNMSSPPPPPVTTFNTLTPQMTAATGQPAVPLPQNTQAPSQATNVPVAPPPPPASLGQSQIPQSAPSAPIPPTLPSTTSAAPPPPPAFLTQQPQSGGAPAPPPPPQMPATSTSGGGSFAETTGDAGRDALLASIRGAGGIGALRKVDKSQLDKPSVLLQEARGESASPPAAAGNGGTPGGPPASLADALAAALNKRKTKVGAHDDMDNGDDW
row,Variant,effect of a mutation on the interaction
1,W531S;W615S,decreasing interaction
2,W531S,decreasing interaction
3,W615S,decreasing interaction

# Variants of: B3
# Conditions: with las17_yeast LAS17, Q12446
# Target sequence in this assay (Q12446 whole entry): as above
row,Variant,effect of a mutation on the interaction
1,P352A,decreasing interaction
